Source: publication PMC2880861 (New journal of chemistry = Nouveau journal de chimie, 2010)

Assays:
[1] = target: soluble fibrin fragment DD(E); experiment: DD; settings: read-out: Ki, inhibition of binding of a fluorescent peptide to DD(E); TBS·Ca; DD(E) 1.5 μM, Fl 1 μM; uncertainties estimated at ±10%
[2] = rat, tissue homogenate
[3] = in vitro; settings: male, Sprague Dawley, rat, tissue homogenate
[4] = target: T1, gelled human fibrin (Homo sapiens, UniProt P02671+P02675+P02679); experiment: Relaxivity / variable temperature NMRD in fibrin gel; format: physicochemical
T1 sequence (P02671 20-644 isoform P02671-2 limits assumed): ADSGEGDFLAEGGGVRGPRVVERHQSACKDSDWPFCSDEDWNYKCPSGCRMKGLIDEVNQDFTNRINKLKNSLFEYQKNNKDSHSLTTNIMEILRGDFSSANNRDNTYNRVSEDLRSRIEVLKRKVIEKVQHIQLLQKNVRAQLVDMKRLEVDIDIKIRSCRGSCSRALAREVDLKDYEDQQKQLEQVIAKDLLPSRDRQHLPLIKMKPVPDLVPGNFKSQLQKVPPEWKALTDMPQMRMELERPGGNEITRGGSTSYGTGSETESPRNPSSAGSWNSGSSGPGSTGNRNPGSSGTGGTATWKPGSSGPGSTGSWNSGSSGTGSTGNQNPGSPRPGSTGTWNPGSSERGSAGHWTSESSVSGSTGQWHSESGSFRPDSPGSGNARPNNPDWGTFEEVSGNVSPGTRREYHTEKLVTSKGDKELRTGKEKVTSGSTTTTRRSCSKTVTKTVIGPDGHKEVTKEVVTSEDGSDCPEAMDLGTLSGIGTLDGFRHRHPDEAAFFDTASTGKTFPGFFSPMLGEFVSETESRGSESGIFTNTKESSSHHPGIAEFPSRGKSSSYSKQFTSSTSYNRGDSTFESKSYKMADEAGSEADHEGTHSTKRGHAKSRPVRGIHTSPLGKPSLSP
T1 sequence (P02675 45-491 limits assumed): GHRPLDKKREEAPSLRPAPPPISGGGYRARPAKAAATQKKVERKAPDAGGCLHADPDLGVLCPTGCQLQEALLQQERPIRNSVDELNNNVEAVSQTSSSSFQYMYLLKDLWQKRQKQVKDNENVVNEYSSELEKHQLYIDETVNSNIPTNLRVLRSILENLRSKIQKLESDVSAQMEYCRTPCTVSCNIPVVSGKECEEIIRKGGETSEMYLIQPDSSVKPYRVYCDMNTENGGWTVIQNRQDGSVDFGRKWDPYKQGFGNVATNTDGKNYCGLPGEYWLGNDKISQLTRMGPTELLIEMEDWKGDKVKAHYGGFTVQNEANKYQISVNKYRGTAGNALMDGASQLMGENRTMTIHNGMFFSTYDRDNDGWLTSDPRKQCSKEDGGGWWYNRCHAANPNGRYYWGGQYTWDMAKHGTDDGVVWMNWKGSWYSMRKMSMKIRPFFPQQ
T1 sequence (P02679 27-437 isoform P02679-2 limits assumed): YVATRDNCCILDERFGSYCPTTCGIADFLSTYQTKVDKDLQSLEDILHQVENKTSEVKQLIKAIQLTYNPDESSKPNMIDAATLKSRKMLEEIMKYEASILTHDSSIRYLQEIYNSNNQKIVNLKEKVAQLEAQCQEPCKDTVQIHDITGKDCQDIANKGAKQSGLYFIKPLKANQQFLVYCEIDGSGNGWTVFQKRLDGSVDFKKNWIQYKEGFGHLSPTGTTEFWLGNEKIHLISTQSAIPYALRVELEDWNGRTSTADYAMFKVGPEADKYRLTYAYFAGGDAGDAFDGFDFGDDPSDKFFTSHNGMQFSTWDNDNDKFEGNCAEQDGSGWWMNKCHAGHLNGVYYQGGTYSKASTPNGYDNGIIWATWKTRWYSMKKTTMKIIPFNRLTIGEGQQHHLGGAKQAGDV

[5] = Variable temperature NMRD and O-17 NMR relaxation in TBS; format: physicochemical
[6] = target: T2, human fibrinogen (Homo sapiens, UniProt P02671+P02675+P02679); experiment: NMRD relaxivity in human fibrinogen/TBS solution; format: physicochemical; settings: 30 μM human fibrinogen/TBS, 35 °C
T2 sequence (P02671 20-629 limits assumed): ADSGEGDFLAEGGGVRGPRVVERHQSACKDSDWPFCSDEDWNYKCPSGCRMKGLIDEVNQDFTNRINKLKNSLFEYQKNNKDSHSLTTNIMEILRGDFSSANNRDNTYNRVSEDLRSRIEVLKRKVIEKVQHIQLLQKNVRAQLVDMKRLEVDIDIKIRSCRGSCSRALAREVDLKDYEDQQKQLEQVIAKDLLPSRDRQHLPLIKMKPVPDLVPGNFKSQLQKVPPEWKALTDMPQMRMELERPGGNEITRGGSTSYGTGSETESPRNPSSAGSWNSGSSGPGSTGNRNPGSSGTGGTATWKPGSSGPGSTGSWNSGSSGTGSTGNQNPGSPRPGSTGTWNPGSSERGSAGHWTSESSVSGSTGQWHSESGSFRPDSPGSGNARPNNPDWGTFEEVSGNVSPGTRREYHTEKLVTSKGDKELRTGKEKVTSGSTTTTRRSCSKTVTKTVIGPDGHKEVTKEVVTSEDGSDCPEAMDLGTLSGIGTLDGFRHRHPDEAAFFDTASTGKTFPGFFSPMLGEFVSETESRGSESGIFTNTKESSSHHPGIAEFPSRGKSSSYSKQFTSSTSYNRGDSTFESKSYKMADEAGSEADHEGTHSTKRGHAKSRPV
T2 sequence (P02675 31-491): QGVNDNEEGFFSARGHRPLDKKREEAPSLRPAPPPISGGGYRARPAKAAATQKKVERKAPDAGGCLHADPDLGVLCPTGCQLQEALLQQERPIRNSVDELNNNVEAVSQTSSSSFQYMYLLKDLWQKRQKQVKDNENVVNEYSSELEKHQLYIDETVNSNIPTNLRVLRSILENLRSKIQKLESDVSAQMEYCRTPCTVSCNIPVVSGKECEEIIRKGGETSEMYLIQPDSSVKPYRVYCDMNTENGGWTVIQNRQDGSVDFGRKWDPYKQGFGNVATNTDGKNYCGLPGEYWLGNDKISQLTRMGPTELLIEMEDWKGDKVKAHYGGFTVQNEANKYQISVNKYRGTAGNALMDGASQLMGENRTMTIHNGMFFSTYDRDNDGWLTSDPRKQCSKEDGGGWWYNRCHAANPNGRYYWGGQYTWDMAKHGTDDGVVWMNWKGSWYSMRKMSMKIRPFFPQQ
T2 sequence (P02679 27-433 limits assumed): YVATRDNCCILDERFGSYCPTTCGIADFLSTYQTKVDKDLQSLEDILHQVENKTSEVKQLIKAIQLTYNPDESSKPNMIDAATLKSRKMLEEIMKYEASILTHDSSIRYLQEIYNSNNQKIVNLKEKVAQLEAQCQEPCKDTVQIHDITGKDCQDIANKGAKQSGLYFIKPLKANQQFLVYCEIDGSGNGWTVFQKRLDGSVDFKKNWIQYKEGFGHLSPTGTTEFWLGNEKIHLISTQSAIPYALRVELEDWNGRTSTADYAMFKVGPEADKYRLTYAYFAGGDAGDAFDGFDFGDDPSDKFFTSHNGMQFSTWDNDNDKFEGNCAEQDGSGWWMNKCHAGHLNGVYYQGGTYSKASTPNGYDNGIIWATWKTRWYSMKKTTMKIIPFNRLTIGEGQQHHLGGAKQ

[7] = system: arterial thrombosis; settings: guinea pig; cited from earlier work

| SMILES | Ki [1] | fold increase in metabolic stability [2] | half-life at 100 µM [3] | ΔEl^‡ (temperature dependence of τloc) ([4]; 30 μM fibrin gel (FBN)) | τloc^37 ([4]; 30 μM fibrin gel (FBN), 37 °C) | τR^37 (global) ([4]; 30 μM fibrin gel (FBN), Lipari-Szabo model) | F^2 ([4]; 30 μM fibrin gel (FBN), dimensionless order parameter) | fraction bound to fibrin ([4]; 50 μM 5 in 30 μM fibrin gel, based on the measured binding constant) | relaxivity per Gd ([4]; bound to fibrin at 1.5T) | relaxivity per molecule ([4]; bound to fibrin at 1.5T) | global τR ([4]; fibrin-bound, best fits) | ΔER^‡ (temperature dependence of τR) [5] | ΔH^‡ (temperature dependence of τm) [5] | Δ^2 ×10^−18 [5] | τm^37 ([5]; 37 °C) | τv^37 ([5]; 37 °C) | τR^37 ([5]; 37 °C, isotropic model of rotation) | F^2 ([5]; dimensionless) | binding to fibrinogen (from relaxivity enhancement) [6] | efficacy in arterial thrombosis model [7] |
| --- | --- | --- | --- | --- | --- | --- | --- | --- | --- | --- | --- | --- | --- | --- | --- | --- | --- | --- | --- | --- |
| CC(C)C[C@H](NC(=O)[C@@H]1CSSC[C@H](NC(=O)[C@@H]2CCCN2C(=O)[C@H](CC(C)C)NC(=O)[C@H](CNC(=O)C(CN(CCN(CC(=O)O)CC(=O)O)CC(=O)O)N(CC(=O)O)CC(=O)O)NC(=O)C(CN(CCN(CC(=O)O)CC(=O)O)CC(=O)O)N(CC(=O)O)CC(=O)O)C(=O)N[C@@H](CC(=O)O)C(=O)N[C@@H](Cc2ccc(O)cc2)C(=O)N[C@@H](Cc2ccc(O)cc2)C(=O)NCC(=O)N[C@@H]([C@@H](C)O)C(=O)N1)C(=O)N[C@@H](CC(=O)O)C(=O)NCc1ccc(CNC(=O)[C@H](CNC(=O)C(CN(CCN(CC(=O)O)CC(=O)O)CC(=O)O)N(CC(=O)O)CC(=O)O)NC(=O)C(CN(CCN(CC(=O)O)CC(=O)O)CC(=O)O)N(CC(=O)O)CC(=O)O)cc1 (some centres unmarked) [Compound 4] | 12 µM | 6 to 7 fold | 1.09 h | – | – | – | – | – | – | – | – | – | – | – | – | – | – | – | – | – |
| CC(C)C[C@H](NC(=O)CN(CCNC(=O)C(CN(CCN(CC(=O)O)CC(=O)O)CC(=O)O)N(CC(=O)O)CC(=O)O)CCNC(=O)C(CN(CCN(CC(=O)O)CC(=O)O)CC(=O)O)N(CC(=O)O)CC(=O)O)C(=O)N1CCC[C@H]1C(=O)N[C@H]1CSSC[C@@H](C(=O)N[C@@H](Cc2ccc(-c3ccccc3)cc2)C(=O)N[C@@H](CC(=O)O)C(=O)NCc2cccc(CNC(=O)CN(CCNC(=O)C(CN(CCN(CC(=O)O)CC(=O)O)CC(=O)O)N(CC(=O)O)CC(=O)O)CCNC(=O)C(CN(CCN(CC(=O)O)CC(=O)O)CC(=O)O)N(CC(=O)O)CC(=O)O)c2)NC(=O)[C@H]([C@@H](C)O)NC(=O)CNC(=O)[C@H](Cc2ccc(O)cc2)NC(=O)[C@H](Cc2ccc(O)cc2)NC(=O)[C@H](CC(=O)O)NC1=O (some centres unmarked) [Compound 5] | – | – | – | 7.17 ± 0.48 kcal/mol | 720±20 ps | >20,000 (NA) ps | 0.08 ±0.02 | 81% | 18 mM⁻¹ s⁻¹ | 72 mM⁻¹ s⁻¹ | > 20 ns | 5.95 ± 0.096 kcal/mol | 10.9 ± 0.335 kcal/mol | 10.2 ±0.5 s^2 | 124±9 ns | 18.0 ±1.7 ps | 389±4 ps | 1 | does not bind/binds weakly to fibrinogen | showed efficacy |
